# Measurements as given in patent US20080171037A1 (Genentech, published 2008).
# Target: T1, ECD of the Apo-2L receptor, DR5 (UniProt O14763 56-210, limits assumed)
# T1 construct: extracellular domain; Comparison receptor
# Assay: co-immunoprecipitation (anti-Flag sepharose or nickel-sepharose), Western blot with nickel-conjugated HRP
# Method: The respective ligands (1 μg/ml) and receptors (1 μg/ml) were incubated for 1 hour at room temperature. The reaction mixtures were subjected to precipitation with anti-Flag antibody conjugated to sepharose beads (Kodak) (FIG. 8A, left) or nickel-sepharose (Qiagen) (FIG. 8A, right) by overnight incubation at 4° C. according to manufacturer's instructions and resolved by gel electrophoresis. The ligands were visualized by Western blot analysis with nickel-conjugated horseradish peroxidase. In FIG. 8A, molecular weight markers (kDa) are indicated on the left.
binder,measurement,value
"His-tagged soluble Apo-3 Ligand (ligand, also called histidine tagged soluble Apo-3 Ligand; DNA30879) MGHHHHHHHHHHSSGHIDDDDKHMRASLSAQEPAQEELVAEEDQDPSELNPQTEESQDPAPFLNRLVRPRRSAPKGRKTRARRAIAAHYEVHPRPGQDGAQAGVDGTVSGWEEARINSSSPLRYNRQIGEFIVTRAGLYYLYCQVHFDEGKAVYLKLDLLVDGVLALRCLEEFSATAASSLGPQLRLCQVSGLLALRPGSSLRIRTLPWAHLKAAPFLTYFGLFQVH",binding result,no binding (tested: 1 µg/ml ligand and 1 µg/ml receptor)
